Two molecules from patent publication US20080166293A1 (UAB RESEARCH FOUNDATION, published 2008) can be followed below.

Test [1] has as its target T1, human transferrin receptor (hTfR) (human, UniProt P02786 1-760).
T1 construct: whole, on cells; Always presented on CEF+hTfR cells; also called CEF+hTfR cells
Put plainly: synthetic peptide added to CEF+hTfR cells before HAIYPRH phage; titer of bound phage. As to the method:
(§1) Binding and Competition Studies: Purified phage populations were amplified and were verified to be homogenous through DNA sequencing. Cells were prepared for binding as was described for biopanning procedures. Preparations of plaque-purified and titered phage (1×10¹¹) were incubated in serum-free Opti-MEM on either CEF or CEF+hTfR cells at 4° C. for 1 hour. The cells were washed repeatedly with Opti-MEM and bound phage were eluted with low pH buffer and subsequently titered. […] Multiple trials were completed and average titers and standard deviations determined. The titers determined on CEF+hTfR cells were divided by the titers determined on CEF cells and […] fold over control data points.

The target in test [2] is T1, human transferrin receptor (hTfR). As to the kind of experiment: synthetic peptide added to CEF+hTfR cells before … phage; titer of bound phage. The procedure:
as §1

T1 sequence (P02786 whole entry): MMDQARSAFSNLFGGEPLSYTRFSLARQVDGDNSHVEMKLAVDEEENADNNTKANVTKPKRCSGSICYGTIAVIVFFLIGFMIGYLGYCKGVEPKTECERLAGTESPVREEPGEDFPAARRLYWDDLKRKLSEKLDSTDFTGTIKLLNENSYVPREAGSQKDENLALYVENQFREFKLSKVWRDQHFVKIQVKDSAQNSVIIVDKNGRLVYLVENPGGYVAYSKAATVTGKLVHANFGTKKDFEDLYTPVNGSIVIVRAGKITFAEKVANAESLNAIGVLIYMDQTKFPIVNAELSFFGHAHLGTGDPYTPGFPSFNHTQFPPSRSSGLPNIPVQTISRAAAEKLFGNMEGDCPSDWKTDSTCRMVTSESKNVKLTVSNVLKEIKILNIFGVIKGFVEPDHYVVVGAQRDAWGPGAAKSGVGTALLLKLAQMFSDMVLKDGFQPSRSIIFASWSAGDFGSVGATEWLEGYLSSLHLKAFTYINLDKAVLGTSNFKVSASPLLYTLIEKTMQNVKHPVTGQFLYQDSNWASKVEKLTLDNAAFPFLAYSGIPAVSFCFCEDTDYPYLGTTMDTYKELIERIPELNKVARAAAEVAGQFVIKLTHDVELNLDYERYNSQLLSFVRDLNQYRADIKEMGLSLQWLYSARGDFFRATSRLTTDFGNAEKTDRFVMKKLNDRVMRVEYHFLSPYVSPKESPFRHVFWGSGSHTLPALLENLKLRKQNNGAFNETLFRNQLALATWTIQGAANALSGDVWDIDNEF

B1: HAIYPRH (Seq. ID No. 1) peptide (peptide)
peptide: HAIYPRH
notes: Synthetic peptide, HPLC purified; also called 7-mer
Regarding B1, the binding result in test [1] is “binds”.

B2: THRPPMWSPVWP (Seq. ID No. 2) peptide (peptide)
peptide: THRPPMWSPVWP
notes: Synthetic peptide, HPLC purified; also called 12-mer
Consider B2, for which the binding result in test [2] is listed as “binds”.
